Assay results as given in IntAct's records for PubMed 12860405.

B1: Interleukin-1 receptor-associated kinase 4 (Homo sapiens), Q9NWZ3 (parent)
chain: MNKPITPSTYVRCLNVGLIRKLSDFIDPQEGWKKLAVAIKKPSGDDRYNQFHIRRFEALLQTGKSPTSELLFDWGTTNCTVGDLVDLLIQNEFFAPASLLLPDAVPKTANTLPSKEAITVQQKQMPFCDKDRTLMTPVQNLEQSYMPPDSSSPENKSLEVSDTRFHSFSFYELKNVTNNFDERPISVGGNKMGEGGFGVVYKGYVNNTTVAVKKLAAMVDITTEELKQQFDQEIKVMAKCQHENLVELLGFSSDGDDLCLVYVYMPNGSLLDRLSCLDGTPPLSWHMRCKIAQGAANGINFLHENHHIHRDIKSANILLDEAFTAKISDFGLARASEKFAQTVMTSRIVGTTAYMAPEALRGEITPKSDIYSFGVVLLEIITGLPAVDEHREPQLLLDIKEEIEDEEKTIEDYIDKKMNDADSTSVEAMYSVASQCLHEKKNKRPDIKKVQQLLQEMTAS
partner: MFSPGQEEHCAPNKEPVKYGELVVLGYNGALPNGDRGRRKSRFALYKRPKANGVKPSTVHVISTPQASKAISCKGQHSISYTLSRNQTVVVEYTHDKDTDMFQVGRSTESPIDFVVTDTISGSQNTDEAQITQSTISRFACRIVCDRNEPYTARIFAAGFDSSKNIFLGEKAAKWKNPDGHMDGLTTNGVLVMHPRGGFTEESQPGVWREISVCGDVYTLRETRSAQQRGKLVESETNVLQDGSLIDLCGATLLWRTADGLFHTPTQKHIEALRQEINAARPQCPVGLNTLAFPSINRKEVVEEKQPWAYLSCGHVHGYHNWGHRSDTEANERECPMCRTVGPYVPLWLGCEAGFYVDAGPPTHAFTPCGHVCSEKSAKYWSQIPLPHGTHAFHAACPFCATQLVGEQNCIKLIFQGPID
B2: Interleukin-1 receptor-associated kinase 1 (Homo sapiens), P51617 (parent)
chain: MAGGPGPGEPAAPGAQHFLYEVPPWVMCRFYKVMDALEPADWCQFAALIVRDQTELRLCERSGQRTASVLWPWINRNARVADLVHILTHLQLLRARDIITAWHPPAPLPSPGTTAPRPSSIPAPAEAEAWSPRKLPSSASTFLSPAFPGSQTHSGPELGLVPSPASLWPPPPSPAPSSTKPGPESSVSLLQGARPFPFCWPLCEISRGTHNFSEELKIGEGGFGCVYRAVMRNTVYAVKRLKENADLEWTAVKQSFLTEVEQLSRFRHPNIVDFAGYCAQNGFYCLVYGFLPNGSLEDRLHCQTQACPPLSWPQRLDILLGTARAIQFLHQDSPSLIHGDIKSSNVLLDERLTPKLGDFGLARFSRFAGSSPSQSSMVARTQTVRGTLAYLPEEYIKTGRLAVDTDTFSFGVVVLETLAGQRAVKTHGARTKYLKDLVEEEAEEAGVALRSTQSTLQAGLAADAWAAPIAMQIYKKHLDPRPGPCPPELGLGLGQLACCCLHRRAKRRPPMTQVYERLEKLQAVVAGVPGHSEAASCIPPSPQENSYVSSTGRAHSGAAPWQPLAAPSGASAQAAEQLQRGPNQPVESDESLGGLSAALRSWHLTPSCPLDPAPLREAGCPQGDTAGESSWGSGPGSRPTAVEGLALGSSASSSSEPPQIIINPARQKMVQKLALYEDGALDSLQLLSSSSLPGLGLEQDRQGPEESDEFQS
partner: B1 partner

Variants of: B1
Conditions: with peli2_human PELI2, Q9HAT8

| effect of a mutation on the interaction | Variant |
| --- | --- |
| disrupting interaction | MNKPITPSTYVRCLNVGLIRKLSDFIDPQEGWKKLAVAIKKPSGDDRYNQFHIRRFEALLQTGKSPTSELLFDWGTTNCTVGDLVDLLIQNEFFAPASLLLPDAVPKTANTLPSKEAITVQQKQMPFCDKDRTLMTPVQNLEQSYMPPDSSSPENKSLEVSDTRFHSFSFYELKNVTNNFDERPISVGGNKMGEGGFGVVYKGYVNNTTVAVAKLAAMVDITTEELKQQFDQEIKVMAKCQHENLVELLGFSSDGDDLCLVYVYMPNGSLLDRLSCLDGTPPLSWHMRCKIAQGAANGINFLHENHHIHRDIKSANILLDEAFTAKISDFGLARASEKFAQTVMTSRIVGTTAYMAPEALRGEITPKSDIYSFGVVLLEIITGLPAVDEHREPQLLLDIKEEIEDEEKTIEDYIDKKMNDADSTSVEAMYSVASQCLHEKKNKRPDIKKVQQLLQEMTAS [K213A] |

Variants of: B2
Conditions: with peli2_human PELI2, Q9HAT8

| effect of a mutation on the interaction | Variant |
| --- | --- |
| disrupting interaction | K239S |
